Data on 16 molecules can be found in patent publication US12723105 (BEIJING STARMAB BIOMED TECHNOLOGY, dated 2026).

Numbering of substitutions follows the chain as printed. In names and notes the source's numbering stands.

B1: hHS5 (VHH)
VHH: EVQLLESGGGLVQPGGSLRLSCAASGRTFTTHAMGWFRQAPGKEREFVSAINWGGRTTYYADSVKGRFIISRDTGANTLYLQMNSLRAEDTAVYYCASNLDTYNVRAGTTNSWGQGTQVTVSS
notes: also called humanized HS5; not shown: C-terminal His-tag
B2: hHS10 (VHH)
VHH: EVQLVESGGGLVQPGGSLRLSCAASGSTDSAYRMGWFRQAPGKEREFVSAINWSDGRTYYADSVKGRFTISRDNSKNTLYLQMNSLRAEDTAVYYCAADPDSRLYYTVPQNYDYWGQGTLVTVSS
notes: also called humanized HS10; not shown: C-terminal His-tag
B3: HS12 (VHH)
VHH: QVQLVESGGGSVQAGGSLRLSCAASGRTFISFSMGWFRQAPGKEREFVASITNSGSGILYGDSVKGRFTISRDNAKNTMYLQMNSLKPEDTAVYYCAAGTGAGRYRYASMFDYWGQGTQVTVSS
notes: not shown: C-terminal His-tag
B4: HS5 (VHH)
VHH: B1 VHH with L5V, P14A, S49A, A50T, L79V, R87K, A88P
notes: not shown: C-terminal His-tag
B5: HS6 (VHH)
VHH: EVQLVESGGGLVQAGGSLRLSCAASGRIFHTYAVGWFRQAPGKERESVVIINWSSDHTYVAQSVKGRFTISRDRAKNTFYLQMNSLKPEDTAVYYCAVRRRLYGLRESDFDSWGQGTQVTVSS
notes: not shown: C-terminal His-tag
B6: HS10 (VHH)
VHH: B2 VHH
notes: not shown: C-terminal His-tag
B7: 1518-HS5 (CD16F1-L1-hHS5-L1-hA09-10-3-L3-hA09-10-4-L1-hPL16-L3-hPL16) (bispecific antibody)
chain: EVQLVESGGGLVQPGGSLRLSCAVSGSLFSARVMGWYRQAPGKQRELVAAITSGVRTDYADSVKGRFTISRDNAKRAVYLQMNSLKPEDTAVYYCNVNLYNTGNYWGQGTQVTVSSGGGGSGGGSEVQLLESGGGLVQPGGSLRLSCAASGRTFTTHAMGWFRQAPGKEREFVSAINWGGRTTYYADSVKGRFIISRDTGANTLYLQMNSLRAEDTAVYYCASNLDTYNVRAGTTNSWGQGTQVTVSSGGGGSGGGSEVQLVESGGGLVQPGGSLRLSCAASGGGRTFSNYALGWFRQAPGKEREFVAAISRSGGNINYADSVKGRFTISRDNFKNTVYLQMSSLRAEDTAVYYCAAHYLLLPSYISTSTNMYNYWGQGTQVTVSSAAAQVQLVESGGGLVQPGGSLRLSCAASGGGRTFSNYALGWFRQAPGKEREFVAAISRSGGNINYADSVKGRFTISRDNAKNTVYLQMSSLRAEDTAVYYCAAHYLLLPSYISTSTNMYNYWGQGTQVTVSSGGGGSGGGSEVQLVESGGGLVQPGGSLRLSCAASGGTFLTYSMSWVRQAPGKEREFVSSINWSGYMTYYADSVKGRFTISRDNSKNTLYLQMNSLRAEDTAVYYCAAARTAIAAKRSSEFDYWGQGTQVTVSSAAAEVQLVESGGGLVQPGGSLRLSCAASGGTFLTYSMSWVRQAPGKEREFVSSINWSGYMTYYADSVKGRFTISRDNSKNTLYLQMNSLRAEDTAVYYCAAARTAIAAKRSSEFDYWGQGTQVTVSS
notes: Multi-specific single chain antibody with the 9-residue linker G4SG3S between the anti-HSA and anti-CD47 domains
B8: 1518-HS5-GS15 (bispecific antibody)
chain: EVQLVESGGGLVQPGGSLRLSCAVSGSLFSARVMGWYRQAPGKQRELVAAITSGVRTDYADSVKGRFTISRDNAKRAVYLQMNSLKPEDTAVYYCNVNLYNTGNYWGQGTQVTVSSGGGGSGGGSEVQLLESGGGLVQPGGSLRLSCAASGRTFTTHAMGWFRQAPGKEREFVSAINWGGRTTYYADSVKGRFIISRDTGANTLYLQMNSLRAEDTAVYYCASNLDTYNVRAGTTNSWGQGTQVTVSSGGGGSGGGGSGGGGSEVQLVESGGGLVQPGGSLRLSCAASGGGRTFSNYALGWFRQAPGKEREFVAAISRSGGNINYADSVKGRFTISRDNFKNTVYLQMSSLRAEDTAVYYCAAHYLLLPSYISTSTNMYNYWGQGTQVTVSSAAAQVQLVESGGGLVQPGGSLRLSCAASGGGRTFSNYALGWFRQAPGKEREFVAAISRSGGNINYADSVKGRFTISRDNAKNTVYLQMSSLRAEDTAVYYCAAHYLLLPSYISTSTNMYNYWGQGTQVTVSSGGGGSGGGSEVQLVESGGGLVQPGGSLRLSCAASGGTFLTYSMSWVRQAPGKEREFVSSINWSGYMTYYADSVKGRFTISRDNSKNTLYLQMNSLRAEDTAVYYCAAARTAIAAKRSSEFDYWGQGTQVTVSSAAAEVQLVESGGGLVQPGGSLRLSCAASGGTFLTYSMSWVRQAPGKEREFVSSINWSGYMTYYADSVKGRFTISRDNSKNTLYLQMNSLRAEDTAVYYCAAARTAIAAKRSSEFDYWGQGTQVTVSS
notes: Multi-specific single chain antibody with the 15-residue linker (G4S)3 between the anti-HSA and anti-CD47 domains
B9: CD16E11 (VHH)
VHH: QVQLVESGGGLVQPGGSLTLSCRASGFTFSNHAMSWVRQAPGKGLEWVSEISFNGHATRYADSLKGRFTISRDNAKNTLYLQMNTLKPEDTAVYYCRKGWNATPQIGERGRGTQVTVSS
notes: not shown: C-terminal His-tag
B10: CD16F1 (VHH)
VHH: EVQLVESGGGLVQPGGSLRLSCAVSGSLFSARVMGWYRQAPGKQRELVAAITSGVRTDYADSVKGRFTISRDNAKRAVYLQMNSLKPEDTAVYYCNVNLYNTGNYWGQGTQVTVSS
notes: not shown: C-terminal His-tag
B11: PL14 (VHH)
VHH: EVQLVESGGGLVQAGGSLRLSCAASGSTSGIYDMGWYRQAPGKLREVVGIITSGGTTNYADFAKGRFTISRDNAKNMMYLQMNSLKPEDTAVYYCNIRTRLIIWGQGTQVTVSS
notes: not shown: C-terminal His-tag
B12: PL18 (VHH)
VHH: EVQLVESGGGLVQAGGSLRLSCAASGRTFNIYSMAWFRQAPGKEREFVVRINWNRGTTYYADSVKGRFTISRDNAKNTVYLQMSNLKPEDTAVYYCAARGSPSTIGAFTSASHYDYWGQGTQVTVSS
notes: not shown: C-terminal His-tag
B13: PL2 (VHH)
VHH: QVQLVESGGGLVQAGGSLRLSCAVSGLTLSRYTMAWFRQAPGKEREFVAAIIRNSVSTFHEESVKGRFTISRDNVKNMMYLQMNTLKPEDTAVYYCATNVGPTGGFSLQSVQRYDAWGQGTQVTVSS
notes: not shown: C-terminal His-tag
B14: PL16 (VHH)
VHH: QVQLVESGGGLVQAGGSLRLSCAFSGGTFLTYSLGWFRQGPGKEREFVASINWSGYMTSYVDSVKGRFTISRDNAKNTVYLQMNSLKPEDTALYYCAAARTAIAAKRSSEFDYWGQGAQVTVSS
notes: not shown: C-terminal His-tag
B15: PL11 (VHH)
VHH: QVQLVESGGGLVQAGGSLRLSCAASGRTFNTYDMGWFRRAPGKEREFVAGIDWYTTNTYYADSVKGRFTISRDNAKNTVYLQMRSLKPEDTAVYYCAAGIRSTATITGQADYWGQGAQVTVSS
notes: not shown: C-terminal His-tag
B16: PL17 (VHH)
VHH: B15 VHH with A40T, I51M, Y54N, T56I, T105I, A117T
notes: not shown: C-terminal His-tag

The target of one experiment is Monkey serum albumin (Monkey). Put plainly: BLI (Octet), cross-species albumin binding. For orientation: In BLI a coated tip is dipped into the sample, and binding shifts an interference pattern.
As for B1, binding was characterised by a dissociation constant (Kd) of 11.6 nM.
Take B2: the Kd (as a rule, the constant that tells how readily two partners part at equilibrium) was 8.08 nM.

The target in a further experiment is mouse serum albumin (mouse, UniProt P07724 25-608). Description: BLI (Octet), cross-species albumin binding.
The molecule B2 registered a dissociation constant Kd of 4.57 nM.

A further experiment concerns the target T1, Human serum albumin (human, UniProt P02768 25-609).
T1 construct: also called HSA
Description: BLI (Octet), cross-species albumin binding.
On to B1, for which the dissociation constant Kd was 0.817 nM.
Molecule B2 returned a Kd of 3.18 nM.

In another experiment the target is T1, Human serum albumin. Put plainly: BLI (Octet) as in Example 1, His-tagged VHH, HSA.
With B3, binding was put at a Kd of 0.568 nM; the koff (in general, the first-order rate constant of dissociation) turned out to be 0.000583 s⁻¹; the kon (commonly the second-order rate constant of association) worked out at 1.03e+06 M⁻¹ s⁻¹.
The corresponding values for B4 are 0.946 nM, 0.000765 s⁻¹ and 809000 M⁻¹ s⁻¹.
The corresponding values for B5 are 0.498 nM, 0.000829 s⁻¹ and 1.67e+06 M⁻¹ s⁻¹.
B6 returned an equilibrium dissociation constant (Kd) of 2.89 nM, a dissociation rate constant (koff) of 8.01e-05 s⁻¹ and a kon of 27700 M⁻¹ s⁻¹.

A further experiment concerns the target T2, CD47 natively expressed on tumor cell surface (Jurkat, HL60 cells) (human, UniProt Q08722 19-323).
T2 construct: whole, on cells; also called CD47 on the HL60 cell surface; CD47 on the Jurkat cell surface
Description: flow cytometry on HL60 cells (express CD47 but not PD-L1).
For B7, the EC50 (commonly the concentration needed to bring the measured effect to its halfway point) came to 26 nM.
On the same count and under the same terms, with B8 the figure was 8.4 nM.

The target in a further experiment is T3, Human CD16A (human, UniProt P08637 17-208, limits assumed).
T3 construct: also called FcγRIIIa
T3 sequence (P08637 17-208 limits assumed): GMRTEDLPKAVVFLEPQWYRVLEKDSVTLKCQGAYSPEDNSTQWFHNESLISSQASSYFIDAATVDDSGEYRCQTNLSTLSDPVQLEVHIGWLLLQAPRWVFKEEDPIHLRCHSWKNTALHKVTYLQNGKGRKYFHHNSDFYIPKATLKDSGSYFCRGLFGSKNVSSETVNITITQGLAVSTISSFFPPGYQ
Description: BLI (Octet) as in Example 1, His-tagged VHH, human CD16A.
B9 had a Kd of 3.02 nM, an off-rate constant (koff) of 6e-05 s⁻¹ and a kon of 19900 M⁻¹ s⁻¹.
For B10 the same measures were 4.68 nM, 0.000109 s⁻¹ and 23300 M⁻¹ s⁻¹.

The target in another experiment is T4, Human PD-L1 antigen (human, UniProt Q9NZQ7 19-238).
T4 construct: also called PD-L1 protein
T4 sequence (Q9NZQ7 19-238 limits assumed): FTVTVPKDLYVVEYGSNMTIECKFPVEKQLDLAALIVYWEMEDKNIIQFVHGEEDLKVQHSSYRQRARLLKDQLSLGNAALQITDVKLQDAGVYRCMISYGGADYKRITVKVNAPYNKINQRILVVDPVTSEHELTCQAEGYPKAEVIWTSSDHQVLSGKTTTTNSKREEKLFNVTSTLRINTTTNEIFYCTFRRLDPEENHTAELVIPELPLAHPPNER
Description: BLI (Octet), His-tagged VHH on anti-penta-His tips, soluble human PD-L1.
B11 had a dissociation constant Kd of 0.0177 nM, a koff of 1.1e-06 s⁻¹ and an on-rate (kon) of 62100 M⁻¹ s⁻¹.
The corresponding values for B12 are 2.67 nM, 0.000114 s⁻¹ and 42700 M⁻¹ s⁻¹.
For the molecule B13, binding was put at a Kd of 630 nM, the dissociation rate constant (koff) amounted to 0.021 s⁻¹ and the kon is 33300 M⁻¹ s⁻¹.
The corresponding values for B14 are 0.0271 nM, 2.98e-06 s⁻¹ and 110000 M⁻¹ s⁻¹.
For B15 the same measures were 19 nM, 0.000522 s⁻¹ and 27500 M⁻¹ s⁻¹.
The corresponding values for B16 are 0.0114 nM, 1.09e-06 s⁻¹ and 87000 M⁻¹ s⁻¹.
